According to US20230220399:
Read-outs that look alike come from different tables or passages of the source.

Assays:
[1] = molecular target: CD3 delta/epsilon heterodimer (UniProt P04234+P07766); conditions: ELISA, SB18, 37 C
[2] = molecular target: human serum albumin (HSA) (Homo sapiens) (UniProt P02768); conditions: ELISA, SB18, 37 C
[3] = molecular target: PD-L1 (B7-H1) (Homo sapiens) (UniProt Q9NZQ7); conditions: ELISA, SB18, 37 C
[4] = molecular target: 4-1BB (TNFRSF9) (Homo sapiens) (UniProt Q07011); conditions: ELISA
[5] = system: KRAS G12D G12D, P01116-2; conditions: ELISA, SB18, 37 C
[6] = Nap-dU at n (6) positions [Nap-dU at 16,20,23,28,29,30,31,34,40,41,42,45,54]
[7] = Nap-dU at n (6) positions [Nap-dU at 18,22,26,34,36,39,42,43,46,52,57]
[8] = Nap-dU at n (6) positions [18,20,22,32,33,34,35,36,44,45,47,53,57 (Nap-dU)]
[9] = Nap-dU at n (6) positions [18,20,26,27,29,31,35,36,42,45,53,54,55,56]
[10] = Nap-dU at n (6) positions [Nap-dU at 3,6,11,12,13,14,17,23,24,25,28,37]
[11] = Nap-dU at n (6) positions [4,8,14,21-23,25]
[12] = Nap-dU at n (6) positions [4,8,14,21,22,23,25]
[13] = Nap-dU at n (6) positions [Nap-dU at 5,6,7,8,11,17,18,19,22]
[14] = Nap-dU at n (6) positions [Nap-dU at 4,17,24,26,29,32,33,36,45]
[15] = Nap-dU at n (6) positions [13,15-16,18,23-24,29,31,34,41,44]
[16] = Nap-dU at n (6) positions [9,14,18,24,31,32,33,35,44]
[17] = Nap-dU at n (6) positions [Nap-dU at 21,28,30,33,36,37,40,49]
[18] = Nap-dU at n (6) positions [2,4,9,17,19,23,24,25,26,33,35]
[19] = Nap-dU at n (6) positions [1,7,9,15,17,19,24,32,34,38,39,40,41,48,50]
[20] = Nap-dU at n (6) positions [1,6,7,8,14,16,18,20], SB18, 37 C
[21] = Nap-dU at n (6) positions [1,6,7,8,14,16,18,20]
[22] = Nap-dU at n (6) positions [Nap-dU at 1,6,7,8,9,12,18,19,20,23]

Chain of CD3 delta/epsilon heterodimer (P04234 22-105, stated change not applied, chain 1 of 2): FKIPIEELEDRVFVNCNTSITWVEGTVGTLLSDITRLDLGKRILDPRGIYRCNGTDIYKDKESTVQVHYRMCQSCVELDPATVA
Chain of CD3 delta/epsilon heterodimer (P07766 23-126, stated change not applied, chain 2 of 2): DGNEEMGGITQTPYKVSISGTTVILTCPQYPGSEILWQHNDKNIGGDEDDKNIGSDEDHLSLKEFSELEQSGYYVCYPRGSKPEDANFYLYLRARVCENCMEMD
Chain of PD-L1 (B7-H1) (Homo sapiens) (Q9NZQ7 19-238): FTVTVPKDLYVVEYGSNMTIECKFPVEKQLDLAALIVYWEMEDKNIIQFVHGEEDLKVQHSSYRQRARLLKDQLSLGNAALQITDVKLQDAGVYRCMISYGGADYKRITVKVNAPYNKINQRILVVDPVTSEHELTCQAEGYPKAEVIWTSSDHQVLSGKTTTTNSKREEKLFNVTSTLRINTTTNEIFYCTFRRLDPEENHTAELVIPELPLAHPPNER
Chain of 4-1BB (TNFRSF9) (Homo sapiens) (Q07011 24-186): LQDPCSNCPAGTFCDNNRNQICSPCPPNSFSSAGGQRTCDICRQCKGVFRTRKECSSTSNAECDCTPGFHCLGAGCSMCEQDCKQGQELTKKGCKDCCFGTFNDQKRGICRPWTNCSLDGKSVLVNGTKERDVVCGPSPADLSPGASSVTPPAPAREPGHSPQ

In the case of “GAGTGACCGTCTGCCTGGATCCTGCCCTTTTAATCCGACTTTAATGGCCACGCTCACCAGCCACACCACCAGCC [AA001]”, the Kd [1, 6] is reported as 3.17 nM and the Kd [2, 6] is reported as 9.62 nM.

With “GAGTGACCGTCTGCCTGTCAATCACTGACGAAATGTACTACTTGATAGAGCTAACCTCAGCCACACCACCAGCC [AP027]” the Kd [3, 7] was 354 nM and the Kd [2, 7] was 2.17 nM.

“GAGTGACCGTCTGCCTGTCTCCAACCTCGCCTTTACAACTATATCTGACGAACTAACACAGCCACACCACCAGCC [AB001]” gave a Kd ([4]; Nap-dU at n (6) positions [Nap-dU at 16,18,20,27,32,33,34,40,42,44,46,54], SB18 buffer (5 mM MgCl2), 37 C) of 0.04 nM and a Kd ([2]; Nap-dU at n (6) positions [Nap-dU at 16,18,20,27,32,33,34,40,42,44,46,54]) of 8.39 nM.

With “GAGTGACCGTCTGCCTGTGTCTGAGGGACCCTTTTTAAGGGCATTATCAGCATGCCTCACACAGCCACACCACCAGCC [AD002]” the Kd [5, 8] was 0.55 nM and the Kd [2, 8] was 1.3 nM.

Sequence “GAGTGACCGTCTGCCTGTGTGAGAATTATGTACCTTAACGATCATCCGAAGGTTTTGACCACAGCCACACCACCAGCC [AD001]” has a Kd [5, 9] of 8.12 nM and a Kd [2, 9] of 8.4 nM.

“GATCCTGCCCTTTTAATCCGACTTTAATGGCCACGCTCAC [AA003]” was tested, and the Kd [1, 10] was 7.63 nM and the Kd [2, 10] was 4.32 nM.

In the case of GCATAAGTCCGGATGGCAGCTTTATGC [AD008], the Kd [5, 11] is reported as 287 nM and the Kd [2, 11] is reported as 66.9 nM.

For “GCATAAGTCCGGATGGCAGCTTTATGCCGACC [AD007]”, the Kd [5, 12] was 152 nM and the Kd [2, 12] was 536 nM.

Work on GCCCTTTTAATCCGACTTTAAT [AA007] yielded a Kd [1, 13] of 15.1 nM and a Kd [2, 13] of 2.03 nM.

With “GCCTGACAACAACGAGTGCGAACTGTACTACTTGATAGAGACCCTCAGCC [AP001]” the Kd [3, 14] was 42.7 nM and the Kd [2, 14] was 20.9 nM.

With “GCCTGCCCCGCCTCTTCTGAAGTTAACATGTGCTCCGAGATGGTACAGCC [AD010]” the Kd [5, 15] was 8.18 nM and the Kd [2, 15] was 4.49 nM.

For “GCCTGGACTAGCATAAGTCCGGATGGCAGCTTTATGCCGACCATCAGCC [AD004]”, the Kd [5, 16] was 16.6 nM and the Kd [2, 16] was 190 nM.

“GCCTGTCTCCAACCTCGCCTTTACAACTATATCTGACGAACTAACACAGCC [AB002]” gave a Kd ([4]; Nap-dU at n (6) positions [6,8,15,20,21,22,28,30,32,34,42], SB18, 37 C) of 0.48 nM and a Kd ([2]; Nap-dU at n (6) positions [6,8,15,20,21,22,28,30,32,34,42]) of 2.92 nM.

“GTCTGCCTGACAACAACGAGTGCGAACTGTACTACTTGATAGAGACCCTC [AP024]” gave a Kd [3, 17] of 33.3 nM and a Kd [2, 17] of 22.3 nM.

For “GTCTGCCTGACAACAACGAGTGCGAACTGTACTACTTGATAGAGACCCTCAGCCACACCACCAGCC [AP022]”, the Kd [3, 17] was 66.6 nM and the Kd [2, 17] was 16.6 nM.

Work on “GTGTGACCTGAAGACGTATAACTTTTACAGAATCTACA [AD050]” yielded a Kd [5, 18] of 455 nM and a Kd [2, 18] of 5.55 nM.

Work on “TCGAGCTGTACGCGTGTGTGACCTGAAGACGTATAACTTTTACAGAATCTACA [AD053]” yielded a Kd [5, 19] of 1.03 nM and a Kd [2, 19] of 1.37 nM.

TCGCCTTTACAACTATATCTGACGA [AB007] showed a Kd [4, 20] of 0.49 nM and a Kd [2, 21] of 186 nM.

Sequence TCGCCTTTACAACTATATCTGACGAAC [AB006] has a Kd [4, 20] of 0.44 nM and a Kd [2, 21] of 278 nM.

“TCTCCAACCTCGCCTTTACAACTATATCTGACGAACTAACA [AB003]” was tested, and the Kd ([4]; Nap-dU at n (6) positions [1,3,10,15,16,17,23,25,27,29,37], SB18, 37 C) was 0.87 nM and the Kd ([2]; Nap-dU at n (6) positions [1,3,10,15,16,17,23,25,27,29,37]) was 19.8 nM.

With TGCCCTTTTAATCCGACTTTAATGGC [AA006] the Kd [1, 22] was 14.3 nM and the Kd [2, 22] was 15.5 nM.

In the case of TGCCCTTTTAATCCGACTTTAATGGCCACG [AA005], the Kd [1, 22] is reported as 39.4 nM and the Kd [2, 22] is reported as 8.27 nM.
